Laboratory results published in the supplement of paper PMC10567573.

B1: CDS2 (parent)
chain: LIVVTQSHLVIHNLFEGMIWFIVP
B2: ZNF263 (parent)
chain: LLRHQRIHTGERPYKCPECGKSFS

Variants of: B1
Assay: protein stability index of a GFP-peptide fusion (GPS, HEK-293T) (PSI 1-6); higher = more stable
Conditions: c terminus: a fixed tail appended
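Also: lentivirally expressed fusions sorted by FACS into six bins by GFP to DsRed ratio, PSI derived from sequencing read proportions per bin multiplied by bin number.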

Protein stability index of substitutions, site by site:
W20: P 2.6, E 2.38, F 2.83, H 3.23, Q 4.66, C 3.16, D 2.87, R 2.57, M 2.28, S 3.64
V4: K 4.3, F 2.09, M 3.42, T 3.04
I22: T 3.85, P 2.56, F 2.83, K 3.07, E 3.14, N 1.8, W 3.42, S 3.28
N13: Y 2.44, D 2.63, E 2.93, P 3.48, T 1.61, R 2.08, K 2.81
E16: N 3.06, I 3.46, W 3.98, A 4.16, M 3.76, D 3.44, T 2.83, Q 2.01, Y 2.74
V3: H 3.21, P 3.31, N 2.96, I 3.46, G 3.92, L 2.57, Q 2.14, R 2.14
P24: M 2.59, Y 2.3, C 3.63, H 3.13, L 2.19, F 2.52
V10: G 1.83, T 2.15, I 4.56, C 2.23, L 1.96
Q6: L 4.3, S 2.58, I 2.71, V 2.76, A 2.85, P 3.21
H8: F 3.38, I 2.81, W 2.77, T 2.91, S 4.08, V 4.43, C 3.31, M 2.48
I11: K 4.09, M 2.84, V 2.52, W 1.04, N 4.03, H 1.57
T5: Q 3.1, S 5.49, E 2.95
F21: W 1.6, Y 2.52, G 2.49, E 1.96, C 3.4, V 2.39, K 4.85, L 3.42, R 2.94
V23: L 3.54, Y 3.02, D 3.03, W 1.67, E 4.22, S 1.85
S7: T 4.59, L 3.2, V 3.79, K 2.27, I 2.54, W 3.44, N 2.81
I2: V 3.01, K 4.33, L 3.84, D 1.02, G 2.41, S 2.69, T 2.77, H 3.16
I19: S 2.75, Q 3.36, L 1.84, G 3.67
L14: V 2.71, F 2.92, A 1.86, W 2.72
G17: M 3.13, P 2.82
H12: G 3.39, D 3.58, A 3.32, L 3.7, C 3.91, K 2.6, M 2.67
F15: W 4.64, P 2.8, N 3.64, V 2.72, E 2.13, I 3.58
M18: K 1.96, W 2.66, S 2.98, E 4.08, P 2.89, Q 2.68
L1: P 3.61, R 3.84, V 3.56, Y 3.07, H 3.11
L9: K 3.33, W 2.91, Q 3.56, V 2.3

Variants of: B2
Assay: as above
Conditions: c terminus: a fixed tail appended

Protein stability index: each site, then its substitutions
L1: A 2.82, C 4.12, D 2.62, E 2.29, F 3.5, G 2.73, H 2.44, I 2.06, K 3.58, M 1.65, N 2.85, P 2.83, Q 4.46, R 4.23, S 2.26, T 2.9, V 3.03, W 2.95, Y 3.07
L2: A 1.96, C 4.89, D 3.39, E 3.61, F 3.31, G 2.76, H 3.11, I 1.78, M 3.08, N 3.27, P 2.63, Q 2.57, S 3.11, T 2.71, V 4.05, W 1.86, Y 1.82
R3: A 3.21, C 2.98, D 3.77, E 2.9, F 1.58, G 2.68, H 2.56, I 2.25, K 2.48, L 1.63, M 2.04, N 2.28, P 2.76, Q 2.34, S 2.81, T 3.27, V 2.3, W 2.3, Y 1.62
H4: A 2.18, C 3.89, D 2.58, E 2.81, F 1.92, G 2.99, I 1.96, K 2.2, L 2.15, M 1.73, N 2.24, P 2.25, Q 2.56, R 3.38, S 2.23, T 1.69, V 3.58, W 1.77, Y 2.12
Q5: A 2.63, C 1.95, D 2.23, E 3.06, G 1.87, H 2.74, I 2.13, K 2.28, L 2.4, M 2.21, N 2.29, P 2.3, R 2.09, S 2.36, T 2.82, V 1.74, W 1.66
R6: A 2.68, C 5, D 2.78, E 2.74, F 1.41, G 2.08, H 3.73, I 2.22, K 2.81, L 2.41, M 2.08, N 2.59, P 2.56, Q 2.53, S 2.51, T 2.85, V 2.78, W 2.06, Y 1.91
I7: A 2.39, C 2.48, D 3.06, E 2.64, F 2.79, G 2.48, H 2.68, K 2.14, L 1.94, M 2.66, N 2.1, P 2.56, Q 2.31, R 2.55, S 1.91, T 2.41, V 2.27, W 2.17, Y 1.77
H8: A 1.86, C 2.03, D 2.53, E 2.52, F 2.04, G 2.39, I 1.8, K 2.44, L 1.85, M 2.24, N 2.88, P 3.3, Q 2.52, R 1.37, S 2.61, T 2, V 2.48, W 1.73, Y 1.59
T9: A 1.85, C 2.19, D 2.73, E 2.62, F 2.06, G 3.33, H 2.21, I 2.53, K 2.41, L 3.29, M 2.21, N 2.07, P 2.45, Q 3.1, R 2.14, S 1.88, V 2.34, W 1.49, Y 2.56
G10: A 2.36, C 2.49, D 2.56, E 3.06, F 2.07, H 2.61, I 2.29, K 2.24, L 2.3, M 2.23, N 3.12, P 2.15, Q 2.86, R 2.46, S 2.64, T 3.22, V 2.43, W 1.69, Y 2.17
